Changes are numbered by the printed parent chain.
Tests used:
[1] = system: integrin αVβ3 with mutated human β3 chain; assay: Antibody binding to integrin αVβ3 heterodimer with human β3 residues substituted with rat residues
Excerpt: (§1) The invention encompasses methods for identifying antagonists that are immunospecific for integrin αVβ3, particularly for antibodies that specifically bind to the same epitope as VITAXIN® and/or LM609. […] In certain embodiments, amino acid substitutions are made in the subunits of integrin αVβ3, for example to change the ligand specificity of the integrin αVβ3 and/or disrupt the heterodimerization of the subunit chains. Preferably the integrin αVβ3 is human. In specific embodiments, such amino acid substitutions disrupt the specific interaction of certain antagonists of integrin αVβ3 with a particular integrin αVβ3 epitope. In a preferred embodiment, the amino acid substitutions are made within regions of an integrin subunit that confers ligand binding specificity, preferably ligand binding specificity of LM609 and/or VITAXIN®, particularly residues 164-202 of human β3. Alternatively, mouse β chain residues corresponding to residues 164-202 of the human β3 chain are replaced with the residues 164-202 of the human β3 chain. Such mouse-human chimeras can be used to screen for antagonists that bind to the region 164-202 of human β3 but not to mouse integrin αVβ3.
In preferred embodiments, the amino acid substitutions are made in the β3 subunit. In certain embodiments, human β3 residues are substituted with rat residues as described in Table 2. […] Such substitutions preferred examples but not limiting. Such substituted subunits are merely exemplary and not limiting. Any integrin αVβ3 regions identified to be responsible for antibody binding can be altered with substituted, deleted or inserted residues to characterize binding specificity of various antibodies and to screen for antibodies with the same a similar binding specificity.
In addition, the invention provides methods for identifying monoclonal antibodies that bind to the heterodimerized αVβ3 but not the αV or the β3 chains when not included in a heterodimer. […] The antibodies identified from such screening methods can be useful for the prevention, management and treatment of integrin αVβ3-mediated diseases and disorders, including but not limited to inflammatory diseases, autoimmune disorders, disorders associated with aberrant expression and/or activity of integrin αvβ3, disorders associated with abnormal bone metabolism, disorders associated with aberrant angiogenesis and cancers, or a condition or symptom associated therewith. It is also contemplated that such antibodies can be used in the methods and compositions contemplated by the present invention. […]

mouse integrin αVβ3 = target: T1, mouse integrin αVβ3 (Mus musculus, UniProt O54890); assay: Antibody binding to wild type mouse integrin αVβ3
T1 sequence (O54890 26-787): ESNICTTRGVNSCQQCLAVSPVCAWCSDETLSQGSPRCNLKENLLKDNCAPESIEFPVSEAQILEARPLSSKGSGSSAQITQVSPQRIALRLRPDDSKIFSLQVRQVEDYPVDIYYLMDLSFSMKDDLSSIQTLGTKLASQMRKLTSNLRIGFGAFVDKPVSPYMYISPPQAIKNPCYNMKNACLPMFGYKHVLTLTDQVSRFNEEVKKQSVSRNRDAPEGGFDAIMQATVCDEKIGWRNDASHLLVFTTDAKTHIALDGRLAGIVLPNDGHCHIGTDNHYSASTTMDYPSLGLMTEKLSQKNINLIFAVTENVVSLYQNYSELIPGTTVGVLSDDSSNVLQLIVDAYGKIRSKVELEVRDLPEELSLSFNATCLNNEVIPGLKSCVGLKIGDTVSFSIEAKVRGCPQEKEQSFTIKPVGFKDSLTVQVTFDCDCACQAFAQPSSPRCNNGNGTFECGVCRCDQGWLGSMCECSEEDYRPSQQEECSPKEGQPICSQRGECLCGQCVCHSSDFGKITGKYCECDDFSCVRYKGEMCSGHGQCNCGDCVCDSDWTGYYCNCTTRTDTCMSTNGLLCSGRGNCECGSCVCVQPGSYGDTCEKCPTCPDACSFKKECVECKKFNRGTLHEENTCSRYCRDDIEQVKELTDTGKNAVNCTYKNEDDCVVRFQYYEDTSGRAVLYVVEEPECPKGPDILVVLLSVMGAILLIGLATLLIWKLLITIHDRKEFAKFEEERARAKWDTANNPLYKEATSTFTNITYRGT
T1 sequence (P43406 31-885 partner limits assumed): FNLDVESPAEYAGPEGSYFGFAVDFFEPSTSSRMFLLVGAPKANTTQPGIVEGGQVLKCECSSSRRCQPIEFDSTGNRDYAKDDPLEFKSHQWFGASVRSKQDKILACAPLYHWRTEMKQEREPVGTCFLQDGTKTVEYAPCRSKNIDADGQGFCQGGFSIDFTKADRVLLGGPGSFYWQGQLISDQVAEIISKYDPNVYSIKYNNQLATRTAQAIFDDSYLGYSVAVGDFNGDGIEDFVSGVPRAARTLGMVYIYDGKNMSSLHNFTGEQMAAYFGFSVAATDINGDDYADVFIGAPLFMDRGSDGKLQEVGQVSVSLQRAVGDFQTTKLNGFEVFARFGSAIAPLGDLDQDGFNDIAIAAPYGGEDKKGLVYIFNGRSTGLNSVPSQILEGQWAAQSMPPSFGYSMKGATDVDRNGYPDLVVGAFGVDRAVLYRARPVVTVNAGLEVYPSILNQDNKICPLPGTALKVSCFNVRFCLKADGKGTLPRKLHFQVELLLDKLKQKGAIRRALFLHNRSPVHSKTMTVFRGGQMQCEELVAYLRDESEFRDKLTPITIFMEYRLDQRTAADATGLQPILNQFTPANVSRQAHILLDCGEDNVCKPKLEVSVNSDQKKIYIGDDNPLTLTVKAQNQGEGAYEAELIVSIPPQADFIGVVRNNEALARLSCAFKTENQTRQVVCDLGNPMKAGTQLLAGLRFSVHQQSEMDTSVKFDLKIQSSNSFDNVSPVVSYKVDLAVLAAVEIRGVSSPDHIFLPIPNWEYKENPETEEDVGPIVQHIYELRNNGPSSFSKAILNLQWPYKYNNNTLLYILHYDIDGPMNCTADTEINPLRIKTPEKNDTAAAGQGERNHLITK
T1 sequence (P43406 887-1044 partner limits assumed): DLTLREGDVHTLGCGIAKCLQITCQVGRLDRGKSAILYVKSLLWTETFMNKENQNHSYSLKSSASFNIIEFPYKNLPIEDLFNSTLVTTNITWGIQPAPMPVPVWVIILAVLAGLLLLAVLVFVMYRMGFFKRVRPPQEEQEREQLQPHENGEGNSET
Excerpt: as §1
(§2) In addition, the invention provides methods for identifying monoclonal antibodies that bind to the heterodimerized αVβ3 but not the αV or the β3 chains when not included in a heterodimer. […]

[2] = target: T2, modified mouse integrin αVβ3 (mouse-human chimera, human β chain residues 164-202) (Mus musculus, UniProt O54890, A208T/I198L/K199E/N204D/N207T/Q196E/S226T); assay: Antibody binding to modified mouse integrin αVβ3 carrying amino acids 164-202 of the human β chain; conditions: mouse β chain region replaced with amino acids 164-202 of the human β chain
T2 sequence (O54890 26-787 Q196E/I198L/K199E/N204D/N207T/A208T/S226T): T1 sequence (O54890 26-787) with Q171E, I173L, K174E, N179D, N182T, A183T, S201T
T2 sequence (P43406 31-885 partner): T1 sequence (P43406 31-885 partner limits assumed)
T2 sequence (P43406 887-1044 partner): T1 sequence (P43406 887-1044 partner limits assumed)
Excerpt: as §1, §2

effect of β3 mutation on antibody binding to integrin αVβ3 ([1]; Mutation A: Glu to Gln at position 171 (E171Q)): disrupts binding
effect of β3 mutation on antibody binding to integrin αVβ3 ([1]; Mutation B: Leu and Glu to Ile and Lys at positions 173 and 174 (L173I, E174K)): disrupt binding
effect of β3 mutation on antibody binding to integrin αVβ3 ([1]; Mutations A and C combined (three substituted residues)): disrupts binding
effect of β3 mutation on antibody binding to the integrin αVβ3 heterodimer ([1]; mutation of residues 171, 173 and/or 174 of the human β3 chain): disrupt binding
binding to mouse integrin αVβ3 (mouse integrin αVβ3): do not bind
binding to modified mouse integrin αVβ3 [2]: do bind
B1: VITAXIN®: humanized monoclonal antibody MEDI-522 (MedImmune) that immunospecifically binds to integrin αVβ3; human IgG1 subclass (antibody, chains of the INN, looked up, V domains shown)
VH: QVQLVESGGGVVQPGRSLRLSCAASGFTFSSYDMSWVRQAPGKGLEWVAKVSSGGGSTYYLDTVQGRFTISRDNSKNTLYLQMNSLRAEDTAVYYCARHLHGSFASWGQGTTVTVSS
VL: EIVLTQSPATLSLSPGERATLSCQASQSISNFLHWYQQRPGQAPRLLIRYRSQSISGIPARFSGSGSGTDFTLTISSLEPEDFAVYYCQQSGSWPLTFGGGTKVEIK
